In patent publication US20240238433A1 (published 2024) one finds Kd data, which are given here for four molecules.

Targets include CEACAM5 (UniProt P06731); CEACAM5 N256A (UniProt P06731); CEACAM6 (UniProt P40199); CEACAM6 N256A (UniProt P40199).
Holding throughout (assay): BLI
On the technique in general: BLI is a label-free optical method that tracks binding on a fibre tip over time.

Assay [1] has as its target T1, In-house produced Avi-tagged N256A mutated CEACAM5 (UniProt P06731 35-685).
T1 chain: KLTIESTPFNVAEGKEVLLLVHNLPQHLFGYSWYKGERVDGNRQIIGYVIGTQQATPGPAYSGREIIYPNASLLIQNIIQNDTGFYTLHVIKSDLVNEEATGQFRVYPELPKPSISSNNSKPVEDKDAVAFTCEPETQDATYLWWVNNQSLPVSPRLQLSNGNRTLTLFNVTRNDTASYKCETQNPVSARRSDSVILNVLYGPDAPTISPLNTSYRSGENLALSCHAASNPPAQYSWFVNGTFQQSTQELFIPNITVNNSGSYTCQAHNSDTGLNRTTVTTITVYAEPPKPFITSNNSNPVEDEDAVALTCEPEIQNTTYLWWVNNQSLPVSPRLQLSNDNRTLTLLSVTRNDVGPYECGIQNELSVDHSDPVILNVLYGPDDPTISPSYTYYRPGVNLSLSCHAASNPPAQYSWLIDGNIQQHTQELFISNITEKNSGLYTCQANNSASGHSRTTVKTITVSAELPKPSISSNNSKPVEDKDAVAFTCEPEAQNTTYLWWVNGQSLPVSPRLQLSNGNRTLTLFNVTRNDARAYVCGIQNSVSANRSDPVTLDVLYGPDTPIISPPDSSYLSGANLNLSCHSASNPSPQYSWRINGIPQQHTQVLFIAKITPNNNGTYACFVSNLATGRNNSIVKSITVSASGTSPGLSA

The target of assay [2] is T2, In-house produced Avi-tagged CEACAM5 (UniProt P06731 35-685).
T2 chain: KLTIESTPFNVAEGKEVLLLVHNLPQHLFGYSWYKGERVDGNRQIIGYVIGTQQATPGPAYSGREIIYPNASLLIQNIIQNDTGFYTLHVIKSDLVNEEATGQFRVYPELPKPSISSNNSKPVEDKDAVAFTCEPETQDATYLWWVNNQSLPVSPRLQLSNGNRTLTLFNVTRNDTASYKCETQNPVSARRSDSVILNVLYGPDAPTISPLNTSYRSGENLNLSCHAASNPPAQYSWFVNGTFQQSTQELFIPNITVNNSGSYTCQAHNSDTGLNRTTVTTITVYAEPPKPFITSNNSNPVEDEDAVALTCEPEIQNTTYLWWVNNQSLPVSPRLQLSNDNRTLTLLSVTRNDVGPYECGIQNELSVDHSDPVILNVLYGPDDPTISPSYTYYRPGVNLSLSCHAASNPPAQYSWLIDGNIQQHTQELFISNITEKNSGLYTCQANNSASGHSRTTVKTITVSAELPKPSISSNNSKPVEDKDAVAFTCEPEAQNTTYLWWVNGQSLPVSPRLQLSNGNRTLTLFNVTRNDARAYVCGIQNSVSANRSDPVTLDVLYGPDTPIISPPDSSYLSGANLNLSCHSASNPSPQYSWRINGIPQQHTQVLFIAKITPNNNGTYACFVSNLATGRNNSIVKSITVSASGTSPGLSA

Assay [3] addresses T3, In-house produced Avi-tagged CEACAM6 (UniProt P40199 35-320).
T3 chain: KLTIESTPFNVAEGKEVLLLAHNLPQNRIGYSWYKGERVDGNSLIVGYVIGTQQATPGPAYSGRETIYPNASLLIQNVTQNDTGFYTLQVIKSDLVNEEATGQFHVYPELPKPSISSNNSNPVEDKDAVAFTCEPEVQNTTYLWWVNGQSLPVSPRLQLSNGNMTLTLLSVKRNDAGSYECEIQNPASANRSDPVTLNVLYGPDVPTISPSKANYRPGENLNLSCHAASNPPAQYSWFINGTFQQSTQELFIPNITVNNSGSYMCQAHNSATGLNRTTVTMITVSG

In assay [4] the target is T4, In-house produced Avi-tagged N256A mutated CEACAM6 (UniProt P40199 35-320).
T4 chain: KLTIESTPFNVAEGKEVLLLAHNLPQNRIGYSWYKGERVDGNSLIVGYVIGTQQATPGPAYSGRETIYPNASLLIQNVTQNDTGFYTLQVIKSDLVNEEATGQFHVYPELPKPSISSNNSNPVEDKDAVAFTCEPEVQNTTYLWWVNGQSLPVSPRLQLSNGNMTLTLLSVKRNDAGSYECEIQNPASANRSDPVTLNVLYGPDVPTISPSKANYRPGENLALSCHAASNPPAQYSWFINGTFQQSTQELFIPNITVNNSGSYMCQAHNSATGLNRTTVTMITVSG

In general, Kd refers to the free concentration of one partner at which half of the binding sites on the other are occupied at equilibrium, for simple one-to-one binding. Low readings indicate tighter binding, high ones weaker binding. Regarding Tusamitamab, the Kd with CEACAM5 is 1.37 nM; in the assay with CEACAM5 N256A, 1.27 nM.
On to NEO-201, for which the Kd is 0.321 nM with CEACAM5, 0.126 nM with CEACAM6, 0.401 nM with CEACAM5 N256A and 0.217 nM with CEACAM6 N256A.

B1: AB1 antibody (antibody, V domains shown)
VH: QVQLVQSGAEVKKPGASVKVSCKASGNTFTSYVMHWVRQAPGQGLEWMGYINPYNDGTKYNEKFKGRVTMTRDTSTSTVYMELSSLRSEDTAVYYCARSTARATPYFYAMDYWGQGTLVTVSS
VL: DIVMTQSPDSLAVSLGERATINCKSSQSLLWSVNQNSYLSWYQLKPGQPPKLLLYGASIRESGVPDRFSGSGSGTDFTLTISSLQAEDVAVYYCQHNHGSFLPYTFGGGTKLEIKR
As to B1, the Kd in assay [1] was > 200 nM; in assay [2] it was 63.8 nM; in assay [3], 71.5 nM; in assay [4] it was 3180 nM.

B2: EBC-123 (antibody, V domains shown)
VH: QVQLVQSGAEVKKPGASVKVSCKASGNTFTSYVMHWVRQAPGQGLEWMGYINPYNDGTKYNEKFKGRVTMTRDTSTSTVYMELSSLRSEDTAVYYCARSTARATPYFYAMDYWGQGTLVTVSS
VL: DIVMTQSPDSLAVSLGERATINCKSSQSLLWSVNQNSYLSWYQLKPGQPPKLLLYGASIRESGVPDRFSGSGSGTDFTLTISSLQAEDVAVYYCQHNHGSFLPYTFGGGTKLEIKR
For B2, the Kd in assay [1] was 0.555 nM; in assay [2] it was 0.775 nM; in assay [3] it was 1.57 nM; in assay [4] it was 1.61 nM.
